Assay [1] has as its target T1, FcγRIa (human, UniProt P12314 16-292).
T1 construct: extracellular domain; also called FcgRI; FcgRIa
The experiment in a line: SPR (Biacore); He/Con_1a (FcgRIa) divided by He/Con_2b (FcgRIIb). Here is the method:
(§1) The heterodimerized antibodies He Abs in which one of the H chains was introduced with an alteration were assayed for their binding activities to each activating FcγR and inhibitory FcγR according to the method described in Example 4. […] The activating FcγRs in FIGS. 26, 27, 28, and 29 are FcγRIa, FcγRIIa (R), FcγRIIa (H), and FcγRIIIa, respectively.
(§2) Analysis of interaction between objective antibody and the FcγR was carried out using Biacore T100 (GE Healthcare). HBS-EP+ (GE Healthcare) was used as the running buffer, and the measurement temperature was set to 25° C. Chips produced by immobilizing the antigen peptide by the amine coupling method to a Series S Sencor Chip CM5 (GE Healthcare), or alternatively, chips produced by allowing preliminarily biotinylated antigen peptides to interact with and immobilize onto a Series S Sensor Chip SA (certified) (GE Healthcare) were used. Antibodies of interest were captured onto an antigen peptide-immobilized chip, and allowed to interact to each FcγR diluted with running buffer. To regenerate and repeatedly use the chip, the antibodies captured on the chip were washed off by reacting 10 mM glycine-HCl, pH 1.5.
T1 sequence (P12314 16-292): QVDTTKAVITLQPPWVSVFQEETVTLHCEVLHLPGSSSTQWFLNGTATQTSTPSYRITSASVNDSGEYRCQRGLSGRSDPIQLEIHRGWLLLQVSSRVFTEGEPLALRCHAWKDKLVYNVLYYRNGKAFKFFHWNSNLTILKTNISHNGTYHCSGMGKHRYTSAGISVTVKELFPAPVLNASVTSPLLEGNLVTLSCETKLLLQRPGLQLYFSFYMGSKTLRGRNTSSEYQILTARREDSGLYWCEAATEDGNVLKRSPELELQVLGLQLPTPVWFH
On the technique in general: In SPR one partner is held on a chip, and binding of the other changes the refractive index at the surface.

Assay [2] addresses T1, FcγRIa. The experiment in a line: SPR (Biacore), relative to GpH7-A5/GpH7-B3/GpL16-k0 = 100.
For a further assay, the target named is T2, FcγRIIb (human, UniProt P31994 43-217).
T2 construct: extracellular domain; also called FcgRIIb; 2b
T2 sequence (looked up): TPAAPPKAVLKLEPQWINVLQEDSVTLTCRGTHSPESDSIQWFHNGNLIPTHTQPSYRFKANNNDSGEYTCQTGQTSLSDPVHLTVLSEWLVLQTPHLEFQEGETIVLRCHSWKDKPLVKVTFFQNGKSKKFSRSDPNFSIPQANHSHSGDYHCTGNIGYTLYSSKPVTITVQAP
The description is as above.

Assay [3] deals with T3, FcγRIa (human, UniProt P12314 16-292).
T3 construct: extracellular domain; also called FcgRI; CD64; not shown: C-terminal His tag
The experiment in a line: SPR (Biacore), antibody captured on antigen peptide chip, FcγRIa as analyte; relative binding amount. On the procedure: as §2
T3 sequence (P12314 16-292): as the sequence (P12314 16-292) above

Assay [4] addresses T4, FcγRIa extracellular domain with C-terminal His tag (human, UniProt P12314 16-292).
T4 construct: extracellular domain; Soluble receptor expressed in FreeStyle293 cells; analyte in Biacore; also called FcgRI; FcgRIa; not shown: His tag at the C terminus
The experiment in a line: SPR (Biacore), antibody captured on antigen peptide chip, FcγR as analyte; binding relative to GpH7-A5/GpH7-B3/GpL16-k0 = 100. On the procedure:
as §1, §2

Assay [5] has as its target T4, FcγRIa extracellular domain with …. The experiment in a line: SPR (Biacore); He/Con_1a divided by He/Con_2b (FcγRIIb). Here is the method: as §1, §2

The values that follow come from patent US20180155451A1 (published 2018).

T4 sequence (P12314 16-292): as the sequence (P12314 16-292) above

B1: GpH7-A5/GpH7-B3 variant Y300_12R/GpL16-k0 (antibody, human IgG1, kappa)
heavy 1: not shown
heavy 2: not shown
light: DIVMTQSPLSLPVTPGEPASISCQASESLVHSNRNTYLHWYLQKPGQSPQLLIYKVSNRFSGVPDRFSGSGSGTDFTLKISRVEAEDVGVYYCSQNTHVPPTFGQGTKVEIERTVAAPSVFIFPPSDEQLKSGTASVVCLLNNFYPREAKVQWKVDNALQSGNSQESVTEQDSKDSTYSLSSTLTLSKADYEKHKVYACEVTHQGLSSPVTKSFNRGEC
notes: heterodimerized IgG1, one H chain mutated; also called He Ab
Regarding B1, in the assay with FcγRIa [1], the “Ia/IIb He_1a/2b” value was found to be 2.54. Also, the “He/Con_1a (Ia binding)” value in the assay with FcγRIa [2] is 105 relative (control = 100). In addition, in the assay with FcγRIIb, the “He/Con_2b (IIb binding)” value is 41.2 relative (control = 100).

B2: GpH7-B3 variant Y300_01G/GpL16-k0 (antibody, human IgG1, kappa)
heavy: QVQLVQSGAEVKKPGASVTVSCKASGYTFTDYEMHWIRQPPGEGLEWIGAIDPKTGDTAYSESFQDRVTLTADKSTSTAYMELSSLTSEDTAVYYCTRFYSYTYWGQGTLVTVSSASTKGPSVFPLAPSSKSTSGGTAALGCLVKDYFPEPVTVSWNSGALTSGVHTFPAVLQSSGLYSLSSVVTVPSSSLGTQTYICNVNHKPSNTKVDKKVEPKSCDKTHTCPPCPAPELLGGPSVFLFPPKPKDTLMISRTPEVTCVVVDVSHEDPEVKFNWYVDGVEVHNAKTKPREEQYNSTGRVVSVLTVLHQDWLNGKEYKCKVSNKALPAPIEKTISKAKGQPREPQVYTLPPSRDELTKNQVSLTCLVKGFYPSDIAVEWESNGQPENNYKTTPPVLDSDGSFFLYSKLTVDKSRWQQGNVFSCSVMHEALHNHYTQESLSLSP
light: DIVMTQSPLSLPVTPGEPASISCQASESLVHSNRNTYLHWYLQKPGQSPQLLIYKVSNRFSGVPDRFSGSGSGTDFTLKISRVEAEDVGVYYCSQNTHVPPTFGQGTKVEIERTVAAPSVFIFPPSDEQLKSGTASVVCLLNNFYPREAKVQWKVDNALQSGNSQESVTEQDSKDSTYSLSSTLTLSKADYEKHKVYACEVTHQGLSSPVTKSFNRGEC
notes: homodimerized IgG1; mutation in both H chains; also called Ho Ab
Turning to B2, in the assay with FcγRIa [3], the Ho/Con_1a was 109 % of control (GpH7-B3/GpL16-k0 = 100).

B3: GpH7-B3 variant T335_19Q/GpL16-k0 (antibody, human IgG1, kappa)
heavy: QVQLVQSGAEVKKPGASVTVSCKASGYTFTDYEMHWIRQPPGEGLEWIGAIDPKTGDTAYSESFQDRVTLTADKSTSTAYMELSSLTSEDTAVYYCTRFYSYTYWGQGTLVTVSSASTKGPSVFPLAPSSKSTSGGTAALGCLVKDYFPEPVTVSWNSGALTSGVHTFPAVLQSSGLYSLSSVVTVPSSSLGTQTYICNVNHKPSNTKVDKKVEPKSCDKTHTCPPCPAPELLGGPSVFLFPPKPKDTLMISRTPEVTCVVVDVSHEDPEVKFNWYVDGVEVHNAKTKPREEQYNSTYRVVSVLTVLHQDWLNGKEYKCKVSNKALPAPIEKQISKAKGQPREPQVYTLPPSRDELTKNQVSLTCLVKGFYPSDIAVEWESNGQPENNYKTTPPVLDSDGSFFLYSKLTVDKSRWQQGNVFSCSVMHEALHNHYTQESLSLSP
light: DIVMTQSPLSLPVTPGEPASISCQASESLVHSNRNTYLHWYLQKPGQSPQLLIYKVSNRFSGVPDRFSGSGSGTDFTLKISRVEAEDVGVYYCSQNTHVPPTFGQGTKVEIERTVAAPSVFIFPPSDEQLKSGTASVVCLLNNFYPREAKVQWKVDNALQSGNSQESVTEQDSKDSTYSLSSTLTLSKADYEKHKVYACEVTHQGLSSPVTKSFNRGEC
notes: as for B2
Take B3: in the assay with FcγRIa [3], the Ho/Con_1a was 105 % of control (GpH7-B3/GpL16-k0 = 100).

B4: GpH7-A5/GpH7-B3 variant Y300_13S/GpL16-k0 (antibody, human IgG1, kappa)
heavy 1: not shown
heavy 2: not shown
light: DIVMTQSPLSLPVTPGEPASISCQASESLVHSNRNTYLHWYLQKPGQSPQLLIYKVSNRFSGVPDRFSGSGSGTDFTLKISRVEAEDVGVYYCSQNTHVPPTFGQGTKVEIERTVAAPSVFIFPPSDEQLKSGTASVVCLLNNFYPREAKVQWKVDNALQSGNSQESVTEQDSKDSTYSLSSTLTLSKADYEKHKVYACEVTHQGLSSPVTKSFNRGEC
notes: as for B1
Consider B4, for which the “Ia/IIb He_1a/2b” value in the assay with FcγRIa [1] was 2.06. The “He/Con_1a (Ia binding)” value with FcγRIa [2] is 111 relative (control = 100). Moreover, in the assay with FcγRIIb, the “He/Con_2b (IIb binding)” value is 53.9 relative (control = 100).

B5: GpH7-A5/GpH7-B3 variant Y300_16H/GpL16-k0 (antibody, human IgG1, kappa)
heavy 1: not shown
heavy 2: not shown
light: DIVMTQSPLSLPVTPGEPASISCQASESLVHSNRNTYLHWYLQKPGQSPQLLIYKVSNRFSGVPDRFSGSGSGTDFTLKISRVEAEDVGVYYCSQNTHVPPTFGQGTKVEIERTVAAPSVFIFPPSDEQLKSGTASVVCLLNNFYPREAKVQWKVDNALQSGNSQESVTEQDSKDSTYSLSSTLTLSKADYEKHKVYACEVTHQGLSSPVTKSFNRGEC
notes: as for B1
In the case of B5, the “Ia/IIb He_1a/2b” value with FcγRIa [1] stood at 1.27. Moreover, in the assay with FcγRIa [2], the “He/Con_1a (Ia binding)” value was 111 relative (control = 100). For the same molecule, the “He/Con_2b (IIb binding)” value in the assay with FcγRIIb is 87 relative (control = 100).

B6: GpH7-A5/GpH7-B3 variant L328_11K/GpL16-k0 (antibody, human IgG1, kappa)
heavy 1: not shown
heavy 2: not shown
light: DIVMTQSPLSLPVTPGEPASISCQASESLVHSNRNTYLHWYLQKPGQSPQLLIYKVSNRFSGVPDRFSGSGSGTDFTLKISRVEAEDVGVYYCSQNTHVPPTFGQGTKVEIERTVAAPSVFIFPPSDEQLKSGTASVVCLLNNFYPREAKVQWKVDNALQSGNSQESVTEQDSKDSTYSLSSTLTLSKADYEKHKVYACEVTHQGLSSPVTKSFNRGEC
notes: He Ab: heterodimerized anti-glypican-3 IgG1, substitution in one H chain only; also called He Ab L328K
B6: the “He/Con_1a (Ia binding)” value in assay [4] is 79.2 % of control (control = 100). In addition, the “He_1a/2b (Ia/IIb)” value in assay [5] came to 10.5.

B7: GpH7-B3 variant Y296_06M/GpL16-k0 (antibody, human IgG1, kappa)
heavy: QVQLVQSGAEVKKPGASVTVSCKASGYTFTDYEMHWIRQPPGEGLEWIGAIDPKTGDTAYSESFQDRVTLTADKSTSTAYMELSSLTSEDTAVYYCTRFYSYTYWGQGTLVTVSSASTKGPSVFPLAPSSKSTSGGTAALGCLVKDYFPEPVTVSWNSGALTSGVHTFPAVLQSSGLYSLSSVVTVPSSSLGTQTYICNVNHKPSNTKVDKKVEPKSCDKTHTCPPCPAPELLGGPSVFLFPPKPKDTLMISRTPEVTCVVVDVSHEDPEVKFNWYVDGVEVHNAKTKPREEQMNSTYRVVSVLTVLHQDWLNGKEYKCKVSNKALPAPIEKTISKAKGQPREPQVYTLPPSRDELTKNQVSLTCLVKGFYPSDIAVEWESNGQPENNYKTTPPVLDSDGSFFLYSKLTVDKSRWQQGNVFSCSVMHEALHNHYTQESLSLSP
light: DIVMTQSPLSLPVTPGEPASISCQASESLVHSNRNTYLHWYLQKPGQSPQLLIYKVSNRFSGVPDRFSGSGSGTDFTLKISRVEAEDVGVYYCSQNTHVPPTFGQGTKVEIERTVAAPSVFIFPPSDEQLKSGTASVVCLLNNFYPREAKVQWKVDNALQSGNSQESVTEQDSKDSTYSLSSTLTLSKADYEKHKVYACEVTHQGLSSPVTKSFNRGEC
notes: as for B2
B7: the Ho/Con_1a with FcγRIa [3] was 104 % of control (GpH7-B3/GpL16-k0 = 100).

B8: GpH7-B3 variant T335_18N/GpL16-k0 (antibody, human IgG1, kappa)
heavy: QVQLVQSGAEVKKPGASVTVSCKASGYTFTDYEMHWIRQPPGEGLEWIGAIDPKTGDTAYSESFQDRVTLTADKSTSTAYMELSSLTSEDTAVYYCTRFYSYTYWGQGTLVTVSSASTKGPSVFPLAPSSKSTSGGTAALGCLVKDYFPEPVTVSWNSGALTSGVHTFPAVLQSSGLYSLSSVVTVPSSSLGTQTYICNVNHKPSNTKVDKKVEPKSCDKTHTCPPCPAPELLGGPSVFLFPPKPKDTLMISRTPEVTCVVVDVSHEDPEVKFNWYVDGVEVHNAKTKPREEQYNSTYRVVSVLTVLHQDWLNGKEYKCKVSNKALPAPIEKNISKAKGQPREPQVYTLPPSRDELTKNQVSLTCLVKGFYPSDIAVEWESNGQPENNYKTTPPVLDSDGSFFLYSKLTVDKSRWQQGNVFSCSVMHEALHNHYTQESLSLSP
light: DIVMTQSPLSLPVTPGEPASISCQASESLVHSNRNTYLHWYLQKPGQSPQLLIYKVSNRFSGVPDRFSGSGSGTDFTLKISRVEAEDVGVYYCSQNTHVPPTFGQGTKVEIERTVAAPSVFIFPPSDEQLKSGTASVVCLLNNFYPREAKVQWKVDNALQSGNSQESVTEQDSKDSTYSLSSTLTLSKADYEKHKVYACEVTHQGLSSPVTKSFNRGEC
notes: as for B2
With B8, the Ho/Con_1a with FcγRIa [3] is 102 % of control (GpH7-B3/GpL16-k0 = 100).

B9: GpH7-B3 variant T335_16H/GpL16-k0 (antibody, human IgG1, kappa)
heavy: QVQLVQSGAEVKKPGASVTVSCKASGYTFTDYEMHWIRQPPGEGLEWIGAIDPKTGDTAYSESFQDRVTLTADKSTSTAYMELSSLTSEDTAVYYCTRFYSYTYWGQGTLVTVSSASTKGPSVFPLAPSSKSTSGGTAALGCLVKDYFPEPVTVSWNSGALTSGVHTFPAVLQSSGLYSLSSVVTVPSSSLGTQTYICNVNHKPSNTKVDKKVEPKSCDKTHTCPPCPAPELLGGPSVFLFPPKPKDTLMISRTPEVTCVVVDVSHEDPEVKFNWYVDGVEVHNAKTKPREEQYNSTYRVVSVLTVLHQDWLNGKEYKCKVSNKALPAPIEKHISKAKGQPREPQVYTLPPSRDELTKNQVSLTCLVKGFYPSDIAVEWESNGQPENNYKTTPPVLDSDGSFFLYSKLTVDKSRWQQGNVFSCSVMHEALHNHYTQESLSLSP
light: DIVMTQSPLSLPVTPGEPASISCQASESLVHSNRNTYLHWYLQKPGQSPQLLIYKVSNRFSGVPDRFSGSGSGTDFTLKISRVEAEDVGVYYCSQNTHVPPTFGQGTKVEIERTVAAPSVFIFPPSDEQLKSGTASVVCLLNNFYPREAKVQWKVDNALQSGNSQESVTEQDSKDSTYSLSSTLTLSKADYEKHKVYACEVTHQGLSSPVTKSFNRGEC
notes: as for B2
As to B9, in the assay with FcγRIa [3], the Ho/Con_1a is 104 % of control (GpH7-B3/GpL16-k0 = 100).

B10: GpH7-B3 variant T335_20W/GpL16-k0 (antibody, human IgG1, kappa)
heavy: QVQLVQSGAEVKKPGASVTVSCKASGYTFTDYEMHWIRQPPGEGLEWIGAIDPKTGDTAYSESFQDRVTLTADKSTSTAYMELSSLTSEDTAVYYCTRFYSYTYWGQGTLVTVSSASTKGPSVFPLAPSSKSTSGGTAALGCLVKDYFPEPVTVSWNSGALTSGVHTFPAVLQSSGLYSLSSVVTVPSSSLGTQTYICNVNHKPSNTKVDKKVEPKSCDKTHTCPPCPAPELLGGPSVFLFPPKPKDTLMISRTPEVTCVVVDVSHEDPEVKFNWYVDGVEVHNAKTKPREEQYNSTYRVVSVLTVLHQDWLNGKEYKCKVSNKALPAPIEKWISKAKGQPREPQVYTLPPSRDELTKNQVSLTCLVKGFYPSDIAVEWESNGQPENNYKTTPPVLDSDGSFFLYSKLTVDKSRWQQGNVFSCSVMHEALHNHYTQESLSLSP
light: DIVMTQSPLSLPVTPGEPASISCQASESLVHSNRNTYLHWYLQKPGQSPQLLIYKVSNRFSGVPDRFSGSGSGTDFTLKISRVEAEDVGVYYCSQNTHVPPTFGQGTKVEIERTVAAPSVFIFPPSDEQLKSGTASVVCLLNNFYPREAKVQWKVDNALQSGNSQESVTEQDSKDSTYSLSSTLTLSKADYEKHKVYACEVTHQGLSSPVTKSFNRGEC
notes: as for B2
B10: in the assay with FcγRIa [3], the Ho/Con_1a was 104 % of control (GpH7-B3/GpL16-k0 = 100).

B11: GpH7-B3 variant Y296_10E/GpL16-k0 (antibody, human IgG1, kappa)
heavy: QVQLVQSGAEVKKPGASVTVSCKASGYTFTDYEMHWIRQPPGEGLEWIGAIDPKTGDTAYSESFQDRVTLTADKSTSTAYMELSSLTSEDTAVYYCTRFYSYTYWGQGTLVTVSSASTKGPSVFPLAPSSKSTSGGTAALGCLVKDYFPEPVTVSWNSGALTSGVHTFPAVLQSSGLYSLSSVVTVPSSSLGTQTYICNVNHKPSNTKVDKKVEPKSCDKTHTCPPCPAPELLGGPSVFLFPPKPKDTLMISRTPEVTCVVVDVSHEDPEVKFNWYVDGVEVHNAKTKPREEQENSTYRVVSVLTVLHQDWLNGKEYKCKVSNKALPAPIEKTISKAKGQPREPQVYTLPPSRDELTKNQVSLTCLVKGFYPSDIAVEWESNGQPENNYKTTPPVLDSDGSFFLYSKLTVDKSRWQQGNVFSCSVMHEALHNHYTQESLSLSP
light: DIVMTQSPLSLPVTPGEPASISCQASESLVHSNRNTYLHWYLQKPGQSPQLLIYKVSNRFSGVPDRFSGSGSGTDFTLKISRVEAEDVGVYYCSQNTHVPPTFGQGTKVEIERTVAAPSVFIFPPSDEQLKSGTASVVCLLNNFYPREAKVQWKVDNALQSGNSQESVTEQDSKDSTYSLSSTLTLSKADYEKHKVYACEVTHQGLSSPVTKSFNRGEC
notes: as for B2
B11: the Ho/Con_1a with FcγRIa [3] is 106 % of control (GpH7-B3/GpL16-k0 = 100).

B12: GpH7-A5/GpH7-B3 variant L328_12R/GpL16-k0 (antibody, human IgG1, kappa)
heavy 1: not shown
heavy 2: not shown
light: DIVMTQSPLSLPVTPGEPASISCQASESLVHSNRNTYLHWYLQKPGQSPQLLIYKVSNRFSGVPDRFSGSGSGTDFTLKISRVEAEDVGVYYCSQNTHVPPTFGQGTKVEIERTVAAPSVFIFPPSDEQLKSGTASVVCLLNNFYPREAKVQWKVDNALQSGNSQESVTEQDSKDSTYSLSSTLTLSKADYEKHKVYACEVTHQGLSSPVTKSFNRGEC
notes: He Ab: heterodimerized anti-glypican-3 IgG1, substitution in one H chain only; also called He Ab L328R
Take B12: the “He/Con_1a (Ia binding)” value in assay [4] is 78.6 % of control (control = 100). Besides, the “He_1a/2b (Ia/IIb)” value in assay [5] is 8.51.

B13: GpH7-A5/GpH7-B3 variant Y300_20W/GpL16-k0 (antibody, human IgG1, kappa)
heavy 1: not shown
heavy 2: not shown
light: DIVMTQSPLSLPVTPGEPASISCQASESLVHSNRNTYLHWYLQKPGQSPQLLIYKVSNRFSGVPDRFSGSGSGTDFTLKISRVEAEDVGVYYCSQNTHVPPTFGQGTKVEIERTVAAPSVFIFPPSDEQLKSGTASVVCLLNNFYPREAKVQWKVDNALQSGNSQESVTEQDSKDSTYSLSSTLTLSKADYEKHKVYACEVTHQGLSSPVTKSFNRGEC
notes: as for B1
Regarding B13, the “Ia/IIb He_1a/2b” value in the assay with FcγRIa [1] was 1.34. Also, in the assay with FcγRIa [2], the “He/Con_1a (Ia binding)” value is 112 relative (control = 100). Besides, in the assay with FcγRIIb, the “He/Con_2b (IIb binding)” value was 84.1 relative (control = 100).

B14: GpH7-A5/GpH7-B3 variant Y300_14T/GpL16-k0 (antibody, human IgG1, kappa)
heavy 1: not shown
heavy 2: not shown
light: DIVMTQSPLSLPVTPGEPASISCQASESLVHSNRNTYLHWYLQKPGQSPQLLIYKVSNRFSGVPDRFSGSGSGTDFTLKISRVEAEDVGVYYCSQNTHVPPTFGQGTKVEIERTVAAPSVFIFPPSDEQLKSGTASVVCLLNNFYPREAKVQWKVDNALQSGNSQESVTEQDSKDSTYSLSSTLTLSKADYEKHKVYACEVTHQGLSSPVTKSFNRGEC
notes: as for B1
Regarding B14, the “Ia/IIb He_1a/2b” value in the assay with FcγRIa [1] stood at 2.01. The “He/Con_1a (Ia binding)” value in the assay with FcγRIa [2] is 112 relative (control = 100). The “He/Con_2b (IIb binding)” value with FcγRIIb was 55.6 relative (control = 100).
